The target of assay [1] is T1, mutated human CRTH2 with amino acid substitution (Homo sapiens, UniProt Q9Y5Y4, D171A/I173A/T172A).
T1 construct: inserting genes encoding various mutants with amino acid substitution obtained by deleting termination codons; expressed in transfected cells; host or cells: CHO-S cells (Lifetechnologies), transient (phmAG1-MNLinker vector)
T1 sequence (Q9Y5Y4 1-395 D171A/T172A/I173A): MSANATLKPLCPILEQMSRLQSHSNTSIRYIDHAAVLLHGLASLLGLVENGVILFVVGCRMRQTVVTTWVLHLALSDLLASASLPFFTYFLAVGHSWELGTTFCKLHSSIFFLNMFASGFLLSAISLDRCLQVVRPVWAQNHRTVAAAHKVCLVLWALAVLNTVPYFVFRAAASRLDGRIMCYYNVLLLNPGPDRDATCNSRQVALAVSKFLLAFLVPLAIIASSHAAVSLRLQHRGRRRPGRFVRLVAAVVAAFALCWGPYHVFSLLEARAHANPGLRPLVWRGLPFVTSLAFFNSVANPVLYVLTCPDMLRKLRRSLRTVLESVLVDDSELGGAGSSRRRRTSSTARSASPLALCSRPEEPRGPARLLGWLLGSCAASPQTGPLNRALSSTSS
The experiment in a line: Epitope analysis using CHO-S cells which express mutated human CRTH2 with amino acid substitution. Format: binding. The note with it: mutant D171A, T172A, and I173A; antibody 10 μg/mL; relative to wild-type = 100%. As for the experimental part:
A mutant with amino acid substitution expression vector obtained by partially substituting amino acid residues in an extracellular region with other amino acid residues among the amino acid sequences of human CRTH2 was prepared. Specifically, mutant with amino acid substitution expression vectors obtained by substitution of S2A; N4A; T6A and L7A; K8A, P9A, and L10A; P12A, L14A, and EISA; Q16E, R19H, and Q21R; H23A, S24A, and N25A; T26A, S27A, and I28A; D171A, T172A, and I173A; S174A, R175A, and L176A; D177A, G178A, and R179A; 1180A and M181A; Y183A, Y184A, and N185A; L187A, L188A, and L189A; N190A; P191A; G192A; P193A; D194A; R195A; D196A, and T198A; N275A, G277A, and L278A; P276A; P279A and L281A; P280A; or V282A, R283A, and R284A in the amino acid sequences represented by SEQ ID NO: 2 were respectively prepared. It should be noted that the above symbols in the amino acid substitution indicate [single letter code of an amino acid residue before substitution] [substitution position counting from the N terminal] [single letter code of the amino acid reside after substitution].
Azami-Green tag was added to the intercellular C terminal region by inserting genes encoding various mutants with amino acid substitution obtained by deleting termination codons to the restriction enzyme sites of BamHI and HindIII using phmAG1-MNLinker (MBL) as expression vectors.
The above-described vectors expressing mutants with amino acid substitution were prepared using 1) a method of entirely synthesizing gene sequences encoding mutants with amino acid substitution and inserting the gene sequences into a vector or 2) a method of performing site-specific mutation from a vector into which DNA which encodes the amino acid sequences of wild-type human CRTH2 represented by SEQ ID NO: 1 was inserted.
CHO-S cells (Lifetechnologies) were used for preparing mutated human CRTH2 with amino acid substitution expressing cell lines. Free style CHO expression medium (Invitrogen) containing 8 mM L-Glutamine (Invitrogen) was used for subculturing cells and the cells were cultured by shaking under the conditions of 37° C. in the presence of 5% CO2.
25 μg of the mutated human CRTH2 with amino acid substitution expression vector prepared in (1) described above was dissolved in 400 μL of Opti-Pro SFM (Invitrogen) and 25 μL of a Freestyle MAX Reagent (Invitrogen) was dissolved in 400 μL of Opti-Pro SFM and each of them were allowed to stand at room temperature for 5 minutes. The two liquids were mixed with each other and allowed to stand at room temperature for 15 minutes. The mixed solution was added to the CHO-S culture solution and the cells were cultured for 24 hours, thereby obtaining cell lines which express mutated human CRTH2 with amino acid substitution.
The CHO-S cells which express mutated human CRTH2 with amino acid substitution established in (2) were washed with SM, seeded in a 96-well plate such that one well has 2×10^5 cells, and centrifuged at 1700 rpm for 2 minutes. After the supernatant was removed, chLym2, LV0HV1, the anti-human CRTH2 antibody hu19A2 v52, hu8B1 v1, ch3C12, or ch31A5 prepared in Example 9, or a commercially available anti-human CRTH2 antibody BM16 (Santa Cruz) prepared to have a concentration of 10 μg/mL using SM was added thereto to cause a reaction at 4° C. for 1 hour.
After the cells were washed, goat anti-Human IgG Alexa 647 (Molecular Probes) diluted with SM was added to wells to which chLym2, LV0HV1, hu19A2 v52, hu8B1 v1, ch3C12, or ch31A5 was added and goat anti-Rat IgG Alexa 647 (Molecular Probes) diluted with SM was added to wells to which BM16 was added at a final concentration of 10 μg/mL to cause a reaction at 4° C. for 1 hour.
After the reaction, the cells were washed and suspended with SM, and the fluorescent intensity was analyzed by flow cytometry (BD Biosciences, FACS CantoII). […]

The next assay has as its system human basophils. The experiment in a line: Reactivity against human basophils, flow cytometry. Format: binding. The note with it: 10 μg/mL, 4° C., 1 hour; FIG. 9. As for the experimental part: To human peripheral blood collected by adding a heparin sodium injection liquid, the same amount of physiological saline for injection as the human peripheral blood was added and mixed with each other. 15 mL of Ficoll-Paque PREMIUM 1.084 (GE Healthcare) was added to a 50 mL centrifuge tube, 30 mL of the human peripheral blood diluted with physiological saline was overlaid thereon, and centrifugation was performed at room temperature and 1500 rpm for 30 minutes.
After the centrifugation, the mononuclear cell layer was recovered using a pipette and washed twice with an MACS buffer. After the number of cells was counted, basophils were isolated by a negative selection method using Basophil Isolation Kit II, human (Miltenyi Biotec) according to the attached instructions.
After the isolated cells were washed with SM, the isolated cells were seeded in a 96-well plate such that one well has 5×10^4 cells, and centrifuged at 2000 rpm for 2 minutes. […] After the cells were washed, the cells were suspended with SM, and the fluorescent intensity was analyzed by flow cytometry (BD Biosciences, FACS CantoII).
On the technique in general: In flow cytometry, cells or beads pass a laser one at a time.

A further assay has as its system Th2 cells. Kind of assay: Cytotoxic activity against Th2 cells: cytokine production of PBMC after antibody treatment. The format is cell-based, human. The note with it: antibody 10 μg/mL 20 hours, then anti-CD3/anti-CD28 stimulation 3 days. The procedure:
The mononuclear cell layer prepared in the same manner as in Example 13 was washed twice with RPMI-1640 (Wako Pure Chemical Industries) to which 1/10 volume FBS (GIBCO Inc.), 200 mM-L-Glutamine Stock Solution (NACALAI TESQUE, Inc.), 10 mM MEM Non-Essential Amino Acids Solution (GIBCO Inc.), 100 mM Sodium Pyruvate (GIBCO Inc.), 1 M HEPES Buffer Solution (GIBCO Inc.), and 1/100 volume Penicillin-Streptomycin, Liquid (GIBCO Inc.) were added [hereinafter, referred to as peripheral blood mononuclear cell (PBMC) culture medium], thereby preparing a 1×10^7 cells/mL cell suspension.
The prepared cell suspension was seeded in a 96-well plate at 100 μL/well, chLym2 antibody, the humanized anti-human CRTH2 antibody LV0HV1 or the isotype control antibody described in Example 8 was added thereto at a final concentration of 10 μg/mL to cause a reaction in a 5% CO2 incubator at 37° C. for 20 hours.
The cells after the reaction were washed 7 times with a PBMC culture medium to remove the test antibodies thoroughly. Thereafter, the cells were suspended with 100 μL of PBMC culture medium and seeded in a plate in which anti-CD3 antibody OKT3 (Abeam plc.) was immobilized at a concentration of 1 μg/mL. Next, an anti-CD28 antibody (BD Biosciences) prepared to have a concentration of 2 μg/mL was added thereto at 100 μL/well to cause a reaction in a 5% CO2 incubator at 37° C. for 3 days.
The supernatant after the reaction was recovered, and cytokine in the supernatant was quantified using Human IFN-γ Flex Set (BD Biosciences), Human IL-5 Flex Set (BD Biosciences), and Human IL-13 Flex Set (BD Biosciences) according to the attached instructions.

B1: chLym2: rat/human chimeric Lym2 antibody, Lym2 variable regions with human IgG1 and κ constant regions (antibody, V domains shown)
VH: EVQLVESGGGLVQPGRSMKLSCAASGFTFSNYYMAWVRQAPKKGLEWVATISYDGSSTYYRDSVKGRFTISRDNAKSTLYLQMDSLRSEDTATYYCARHRGYYYSGAGYFDYWGQGVMVTVSS
VL: DVVLTQTPVSLSVTLGDQASISCRSSQSLEYSDGYTYLEWYLQKPGQSPQVLIYGVSNRFSGVPDRFIGSGSGTDFTLKISRVEPEDLGVYYCFQATHDPLTFGSGTKLEIK
For the molecule B1, the “reactivity against cells expressing mutated human CRTH2” value in assay [1] is reported as “additionally lost”. In addition, the “reactivity against human basophils” value with human basophils is on record as “has reactivity”. For the same molecule, in the assay with Th2 cells (FIG. 12(A)), the “production of IL-5 (Th2 cytokine)” value was “reduced” and the “production of IL-13 (Th2 cytokine)” value is on record as “reduced”. The “production of IFN-γ (Th1 cytokine)” value in the assay on Th2 cells (FIG. 12(B)) is “not changed”.

For the origin of these results see patent US10100120B2, “Antibody which specifically binds to human CRTH2” (KYOWA HAKKO KIRIN CO., LTD, priority 2015, dated 2018).
